Assay results reported in patent US20040043959A1, “Combination therapies for treating methylthioadenosine phosphorylase deficient cells” (priority 2002, published 2004).

Experiments:
Assay in all cases: MTAP substrate assay, coupled spectrophotometric (adenine, xanthine oxidase)
Format in all cases: biochemical, human
Conditions in all cases: other: substrate of MTAP, 37° C.
[1] = substrate: CC(C)(C)SC[C@H]1O[C@@H](n2cnc3c(N)ncnc32)[C@H](O)[C@@H]1O
Procedure: (§1) An enzymatic assay to determine the activity of MTAP against a given substrate was performed. Human MTAP containing an N-terminal six-histidine tag was expressed in E. coli BL21 DE3 cells. The protein was purified to homogeneity by Ni2+ affinity chromatography. Enzymatic activity was measured using a coupled spectrophotometric assay designed to monitor the reaction product adenine (Savarese, T. M., Crabtree, G. W., and Parks, R. E. Jr., (1980) Biochem. Pharmacol. 30, 189-199). Various concentrations of the indicated 5′-deoxymethylthio adenosine (MTA) or substrate were incubated in assay buffer (40 mM potassium phosphate buffer, 1 mM, and DTT 0.8 units/ml xanthine oxidase coupling enzyme) for 5 minutes at 37° C. The reaction was initiated by the addition of MTAP. The exact concentration of enzyme used varied for each substrate tested and ranged from 2 nM to 500 nM. Activity as a function of enzyme concentration was determined for each substrate tested to ensure that the appropriate enzyme concentration was used. Activity was detected by continuous monitoring of absorbance at 305 nm for 10 minutes (ΔE=15,500 M^−1).
(§2) Library compounds (10 and 50 uM) were tested using the assay described above with 2 nM MTAP enzyme. The resultant initial velocities are reported as a percentage of the initial velocity observed when MTA is the substrate. MTA controls, 10 and 50 uM concentrations, were run on each plate alongside the library compounds.

[2] = substrate: CC(C)CCSC[C@H]1O[C@@H](n2cnc3c(N)ncnc32)[C@H](O)[C@@H]1O
Procedure: as §1, §2

[3] = substrate: COC[C@H]1O[C@@H](n2cnc3c(N)ncnc32)[C@H](O)[C@@H]1O
Procedure: as §1, §2

[4] = substrate: COc1ccc(CSC[C@H]2O[C@@H](n3cnc4c(N)ncnc43)[C@H](O)[C@@H]2O)cc1
Procedure: as §1, §2

[5] = substrate: COc1ccc(SC[C@H]2O[C@@H](n3cnc4c(N)ncnc43)[C@H](O)[C@@H]2O)cc1
Procedure: as §1, §2

[6] = substrate: COc1cccc(SC[C@H]2O[C@@H](n3cnc4c(N)ncnc43)[C@H](O)[C@@H]2O)c1
Procedure: as §1, §2

[7] = substrate: CSC[C@H]1O[C@@H](n2cnc3c(N)ncnc32)C[C@@H]1O
Procedure: as §1, §2

[8] = substrate: Cc1cccc(CSC[C@H]2O[C@@H](n3cnc4c(N)ncnc43)[C@H](O)[C@@H]2O)c1
Procedure: as §1, §2

[9] = substrate: Cc1cccc(SC[C@H]2O[C@@H](n3cnc4c(N)ncnc43)[C@H](O)[C@@H]2O)c1
Procedure: as §1, §2

[10] = substrate: Nc1ncnc2c1ncn2[C@@H]1O[C@H](CCc2ccccc2)[C@@H](O)[C@H]1O
Procedure: as §1, §2

[11] = substrate: Nc1ncnc2c1ncn2[C@@H]1O[C@H](CNC2CCCC2)[C@@H](O)[C@H]1O
Procedure: as §1, §2

[12] = substrate: Nc1ncnc2c1ncn2[C@@H]1O[C@H](CNCc2ccc(F)cc2)[C@@H](O)[C@H]1O
Procedure: as §1, §2

[13] = substrate: Nc1ncnc2c1ncn2[C@@H]1O[C@H](COc2cccnc2)[C@@H](O)[C@H]1O
Procedure: as §1, §2

[14] = substrate: Nc1ncnc2c1ncn2[C@@H]1O[C@H](CSCCCc2ccccc2)[C@@H](O)[C@H]1O
Procedure: as §1, §2

[15] = substrate: Nc1ncnc2c1ncn2[C@@H]1O[C@H](CSCCc2ccccc2)[C@@H](O)[C@H]1O
Procedure: as §1, §2

[16] = substrate: Nc1ncnc2c1ncn2[C@@H]1O[C@H](CSCc2ccco2)[C@@H](O)[C@H]1O
Procedure: as §1, §2

[17] = substrate: Nc1ncnc2c1ncn2[C@@H]1O[C@H](CSCc2cccs2)[C@@H](O)[C@H]1O
Procedure: as §1, §2

[18] = substrate: Nc1ncnc2c1ncn2[C@@H]1O[C@H](CSc2ccc3ccccc3n2)[C@@H](O)[C@H]1O
Procedure: as §1, §2

[19] = substrate: Nc1ncnc2c1ncn2[C@@H]1O[C@H](CSc2ncc[nH]2)[C@@H](O)[C@H]1O
Procedure: as §1, §2

B1: Human MTAP (Homo sapiens) (protein)
chain: MASGTTTTAVKIGIIGGTGLDDPEILEGRTEKYVDTPFGKPSDALILGKIKNVDCVLLARHGRQHTIMPSKVNYQANIWALKEEGCTHVIVTTACGSLREEIQPGDIVIIDQFIDRTTMRPQSFYDGSHSCARGVCHIPMAEPFCPKTREVLIETAKKLGLRCHSKGTMVTIEGPRFSSRAESFMFRTWGADVINMTTVPEVVLAKEAGICYASIAMATDYDCWKEHEEAVSVDRVLKTLKENANKAKSLLLTTIPQIGSTEWSETLHNLKNMAQFSVLLPRH
notes: six-histidine tag (His6) (N); made in house; host or cells: E. coli BL21 DE3
- Km [1]: 17 µM
- kcat [1]: 0.85 s⁻¹
- Km [2]: 2.8 µM
- kcat [2]: 5.5 s⁻¹
- Km [3]: 250 µM
- kcat [3]: 0.006 s⁻¹
- Km [4]: 3.7 µM
- kcat [4]: 3.8 s⁻¹
- Km [5]: 7 µM
- kcat [5]: 0.8 s⁻¹
- Km [6]: 2.2 µM
- kcat [6]: 1.4 s⁻¹
- Km [7]: 3.3 µM
- kcat [7]: 0.76 s⁻¹
- Km [8]: 4 µM
- kcat [8]: 1.82 s⁻¹
- Km [9]: 2 µM
- kcat [9]: 2.4 s⁻¹
- Km [10]: 1.3 µM
- kcat [10]: 4.6 s⁻¹
- Km [11]: 600 µM
- kcat [11]: 0.3 s⁻¹
- Km [12]: 145 µM
- kcat [12]: 0.089 s⁻¹
- Km [13]: 33 µM
- kcat [13]: 0.126 s⁻¹
- Km [14]: 2.8 µM
- kcat [14]: 2.16 s⁻¹
- Km [15]: 5 µM
- kcat [15]: 2.14 s⁻¹
- Km [16]: 4.45 µM
- kcat [16]: 6.15 s⁻¹
- Km [17]: 6 µM
- kcat [17]: 4.6 s⁻¹
- Km [18]: 6.9 µM
- kcat [18]: 3.16 s⁻¹
- Km [19]: 9 µM
- kcat [19]: 3.8 s⁻¹
